# Results reported in paper PMC10901556, “Conservation of Affinity Rather Than Sequence Underlies a Dynamic Evolution of the Motif-Mediated p53/MDM2 Interaction in Ray-Finned Fishes” (Molecular Biology and Evolution, 2024).
# Where no end group is shown, it is not given here.
# B1: Anguilla anguilla p53TADP2 p53TAD^15–27 (peptide)
# peptide: Ac-SQDETFQALWNTVT
# B2: Lepisosteus oculatus (spotted gar) p53TAD^15–27 (peptide)
# peptide: Ac-SQESFQELWNMVI
# B3: p53TAD_(D.rerio)^12-55 (peptide)
# chain: QNDSQEFAELWEKNLISIQPPGGGSCWDIINDEEYLPGSFDPN
# B4: Clupea harengus (Atlantic herring) p53TADP1 p53TAD^15–27 (peptide)
# peptide: Ac-SQGTFDEIWASNF
# B5: Danio rerio (zebrafish) p53TADP2 p53TAD^15–27 (peptide)
# peptide: Ac-SQEFAELWEKNL
# B6: p53TAD_(D.rerio)^14-26 (peptide)
# chain: DSQEFAELWEKN
# B7: Channa argus p53TADP1 p53TAD^15–27 (peptide)
# peptide: Ac-SQDSFRELWESVV
# B8: Maylandia zebra p53TADP1 p53TAD^15–27 (peptide)
# peptide: Ac-SQDSFKELWDQLP
# B9: Takifugu rubripes (Japanese puffer) p53TADP1 p53TAD^15–27 (peptide)
# peptide: Ac-SQDTFQDLWENVA
# B10: p53TAD_(D.rerio)^21-35 (peptide)
# chain: ELWEKNLISIQPPGG
# B11: Anguilla anguilla (European eel) p53TADP1 p53TAD^15–27 (peptide)
# peptide: Ac-SQESFQELWKMMC
# B12: p53TAD_(D.rerio)^35-49 (peptide)
# chain: GGSCWDIINDEEYLP
# B13: p53TAD_(D.rerio)^41-55 (peptide)
# chain: IINDEEYLPGSFDPN
# B14: Oncorhynchus kisutch (coho salmon) p53TADP1a p53TAD^15–27 (peptide)
# peptide: Ac-GQCSFQQLWESNM
# B15: Oncorhynchus kisutch p53TADP1b p53TAD^15–27 (peptide)
# peptide: Ac-SQGSFQQLWETNM
# B16: p53TAD_(D.rerio)^30-44 (peptide)
# chain: IQPPGGGSCWDIIND
# B17: Oncorhynchus kisutch p53TADP2 p53TAD^15–27 (peptide)
# peptide: Ac-SQESFEDLWKMNL
# B18: p53TAD_(D.rerio)^49-63 (peptide)
# chain: PGSFDPNFFENVLEE
# Experiments:
# [1] = biological target: MDM2 SWIB domain from Anguilla anguilla (European eel) (Anguilla anguilla (European eel)); assay: fluorescence polarisation; displacement: complex of MDM2 (0.2-2 μM) and FITC-p53TAD_(human)^15–26 (15 nM) displaced by increasing unlabeled p53TAD peptide or p53TAD^full-length; KD calculated from IC50 (Nikolovska-Coleska et al. 2004); 20 mM sodium phosphate pH 7.4, 150 mM NaCl, 1 mM TCEP
# [2] = biological target: MDM2_(H.sapiens) SWIB domain (Homo sapiens (human)); assay: as above
# [3] = biological target: MDM2 SWIB domain from Lepisosteus oculatus (spotted gar) (Lepisosteus oculatus (spotted gar)); assay: as above
# [4] = biological target: T1, MDM2_(D.rerio) SWIB domain (Danio rerio (zebrafish)); assay: FP; settings: modification not given
# T1 chain: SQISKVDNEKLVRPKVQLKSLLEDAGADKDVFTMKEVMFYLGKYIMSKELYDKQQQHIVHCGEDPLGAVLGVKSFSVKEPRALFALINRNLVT
# [5] = biological target: MDM2 SWIB domain from Clupea harengus (Atlantic herring) (Clupea harengus (Atlantic herring)); assay: fluorescence polarisation; displacement: complex of MDM2 (0.2-2 μM) and FITC-p53TAD_(human)^15–26 (15 nM) displaced by increasing unlabeled p53TAD peptide or p53TAD^full-length; KD calculated from IC50 (Nikolovska-Coleska et al. 2004); 20 mM sodium phosphate pH 7.4, 150 mM NaCl, 1 mM TCEP
# [6] = biological target: MDM2 SWIB domain from Channa argus (Channa argus); assay: as above
# [7] = biological target: MDM2 SWIB domain from Maylandia zebra (Maylandia zebra); assay: as above
# [8] = biological target: MDM2 SWIB domain from Takifugu rubripes (Japanese puffer) (Takifugu rubripes (Japanese puffer)); assay: as above
# [9] = biological target: MDM2 SWIB domain from Oncorhynchus kisutch (coho salmon) (Oncorhynchus kisutch (coho salmon)); assay: as above
Binder,Kd [2],Kd [4],also measured
B1,770 nM,,Kd [1]: 1200 nM
B2,121 nM,,Kd [3]: 390 nM
B3,,33 nM,
B4,1250 nM,,Kd [5]: 2600 nM
B5,4330 nM,,
B6,,> 200000 nM,
B7,1100 nM,,Kd [6]: 3300 nM
B8,270 nM,,Kd [7]: 1600 nM
B9,1700 nM,,Kd [8]: 4500 nM
B10,,> 200000 nM,
B11,13 nM,,Kd [1]: 190 nM
B12,,> 200000 nM,
B13,,> 200000 nM,
B14,3150 nM,,Kd [9]: 2100 nM
B15,5150 nM,,Kd [9]: 3500 nM
B16,,> 200000 nM,
B17,790 nM,,Kd [9]: 1160 nM
B18,,210000 nM,
